Measured values published in patent publication US20210079056A1 (Bayer, published 2021).

Key:
human NPRA = molecular target: T1, human NPRA (human, UniProt P16066 33-1061); assay: cell-based or functional assay
T1 sequence (looked up): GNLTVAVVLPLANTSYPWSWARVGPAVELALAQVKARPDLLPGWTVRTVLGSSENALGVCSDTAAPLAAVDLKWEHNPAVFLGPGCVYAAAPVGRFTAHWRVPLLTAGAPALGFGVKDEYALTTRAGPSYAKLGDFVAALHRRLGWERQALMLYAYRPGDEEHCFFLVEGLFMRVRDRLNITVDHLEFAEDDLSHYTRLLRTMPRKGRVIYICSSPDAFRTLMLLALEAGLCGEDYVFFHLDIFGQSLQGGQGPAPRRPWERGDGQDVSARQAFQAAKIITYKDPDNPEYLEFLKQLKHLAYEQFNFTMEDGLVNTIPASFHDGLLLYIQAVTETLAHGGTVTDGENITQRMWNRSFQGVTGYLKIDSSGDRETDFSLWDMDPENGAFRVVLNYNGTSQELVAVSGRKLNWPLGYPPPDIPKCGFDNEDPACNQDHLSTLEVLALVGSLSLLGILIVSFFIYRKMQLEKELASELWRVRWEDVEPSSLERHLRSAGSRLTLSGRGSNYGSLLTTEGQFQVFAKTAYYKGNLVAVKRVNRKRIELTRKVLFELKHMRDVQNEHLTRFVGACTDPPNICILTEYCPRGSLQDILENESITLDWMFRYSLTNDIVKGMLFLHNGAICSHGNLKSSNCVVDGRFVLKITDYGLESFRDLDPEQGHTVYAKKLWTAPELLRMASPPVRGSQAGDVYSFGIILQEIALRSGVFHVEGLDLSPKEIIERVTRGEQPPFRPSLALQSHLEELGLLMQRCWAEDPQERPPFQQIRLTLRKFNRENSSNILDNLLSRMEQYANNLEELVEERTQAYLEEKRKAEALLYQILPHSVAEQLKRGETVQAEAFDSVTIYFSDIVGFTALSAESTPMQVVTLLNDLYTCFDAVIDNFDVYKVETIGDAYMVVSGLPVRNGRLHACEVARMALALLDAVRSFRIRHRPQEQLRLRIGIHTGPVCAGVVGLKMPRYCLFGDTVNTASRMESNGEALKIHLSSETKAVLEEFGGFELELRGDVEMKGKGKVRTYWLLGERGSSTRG

rat ANP receptor (NPR-A) = molecular target: T2, rat ANP receptor (NPR-A) (rat, UniProt P18910 29-1057); assay: cell-based or functional assay
T2 sequence (looked up): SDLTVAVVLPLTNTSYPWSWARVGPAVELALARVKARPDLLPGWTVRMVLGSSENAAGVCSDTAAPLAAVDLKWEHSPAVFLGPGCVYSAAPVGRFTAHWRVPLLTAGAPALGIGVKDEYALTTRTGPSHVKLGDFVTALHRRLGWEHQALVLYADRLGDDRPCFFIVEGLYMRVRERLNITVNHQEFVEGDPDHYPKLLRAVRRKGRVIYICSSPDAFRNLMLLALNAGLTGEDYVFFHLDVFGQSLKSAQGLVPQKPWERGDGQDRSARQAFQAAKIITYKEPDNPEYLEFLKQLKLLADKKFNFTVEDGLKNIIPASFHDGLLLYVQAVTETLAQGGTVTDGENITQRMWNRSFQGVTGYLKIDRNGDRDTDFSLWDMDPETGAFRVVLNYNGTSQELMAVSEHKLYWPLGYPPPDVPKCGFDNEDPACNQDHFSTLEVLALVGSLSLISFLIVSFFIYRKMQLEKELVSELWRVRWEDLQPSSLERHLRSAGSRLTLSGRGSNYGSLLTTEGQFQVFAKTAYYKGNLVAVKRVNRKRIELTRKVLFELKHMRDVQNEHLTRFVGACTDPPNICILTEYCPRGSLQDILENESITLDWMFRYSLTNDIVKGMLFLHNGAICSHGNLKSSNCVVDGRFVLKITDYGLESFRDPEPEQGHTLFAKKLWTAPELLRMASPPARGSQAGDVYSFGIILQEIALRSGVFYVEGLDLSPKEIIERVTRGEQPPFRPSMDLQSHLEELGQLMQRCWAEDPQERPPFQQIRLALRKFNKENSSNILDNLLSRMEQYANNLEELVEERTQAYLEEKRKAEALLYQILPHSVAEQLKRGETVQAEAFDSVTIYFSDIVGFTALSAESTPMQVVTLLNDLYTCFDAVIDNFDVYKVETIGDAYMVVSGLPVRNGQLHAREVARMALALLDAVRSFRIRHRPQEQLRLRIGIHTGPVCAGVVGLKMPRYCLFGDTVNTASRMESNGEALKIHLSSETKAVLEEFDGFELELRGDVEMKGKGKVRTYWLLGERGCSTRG

log EC50 ics, cGMP assay, stable hNPRA-CHO k1 cells (human NPRA): -8.8 log M
log EC50 pcs, cGMP assay, stable hNPRA-CHO k1 cells, average (human NPRA): -9.2 log M
log EC50 pcs, cGMP assay, transient hNPRA-HEK293 cells, average (human NPRA): -9 log M
EC50, fluorescence of cGMP reporter cells (rat ANP receptor (NPR-A)): 17 nM
B1: TPP-5661 (antibody)
heavy: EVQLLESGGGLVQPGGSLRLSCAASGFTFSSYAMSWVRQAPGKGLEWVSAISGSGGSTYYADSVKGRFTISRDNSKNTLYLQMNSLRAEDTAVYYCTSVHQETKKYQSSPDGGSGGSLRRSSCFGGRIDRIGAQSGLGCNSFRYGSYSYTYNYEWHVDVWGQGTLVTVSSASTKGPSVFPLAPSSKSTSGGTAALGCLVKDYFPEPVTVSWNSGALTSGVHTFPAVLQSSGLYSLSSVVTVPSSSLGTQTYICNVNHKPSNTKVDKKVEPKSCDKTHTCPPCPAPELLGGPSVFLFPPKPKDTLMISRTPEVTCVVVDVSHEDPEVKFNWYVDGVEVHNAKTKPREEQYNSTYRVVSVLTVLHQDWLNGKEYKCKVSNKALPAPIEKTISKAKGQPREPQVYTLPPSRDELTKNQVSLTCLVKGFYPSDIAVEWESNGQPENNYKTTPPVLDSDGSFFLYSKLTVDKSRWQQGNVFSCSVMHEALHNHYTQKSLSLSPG
light: QSVLTQPPSVSGAPGQRVTISCTGSSSNIGAGYDVHWYQQLPGTAPKLLIYGNSNRPSGVPDRFSGSKSGTSASLAITGLQAEDEADYYCQSYDSSLSGVVFGGGTKLTVLGQPKAAPSVTLFPPSSEELQANKATLVCLISDFYPGAVTVAWKADSSPVKAGVETTTPSKQSNNKYAASSYLSLTPEQWKSHRSYSCQVTHEGSTVEKTVAPTECS
